In publication PMC8139980, “Qki activates Srebp2-mediated cholesterol biosynthesis for maintenance of eye lens transparency”:

T1: Qki-5 full-length (UniProt Q9QYS9 1-341)
T1 sequence: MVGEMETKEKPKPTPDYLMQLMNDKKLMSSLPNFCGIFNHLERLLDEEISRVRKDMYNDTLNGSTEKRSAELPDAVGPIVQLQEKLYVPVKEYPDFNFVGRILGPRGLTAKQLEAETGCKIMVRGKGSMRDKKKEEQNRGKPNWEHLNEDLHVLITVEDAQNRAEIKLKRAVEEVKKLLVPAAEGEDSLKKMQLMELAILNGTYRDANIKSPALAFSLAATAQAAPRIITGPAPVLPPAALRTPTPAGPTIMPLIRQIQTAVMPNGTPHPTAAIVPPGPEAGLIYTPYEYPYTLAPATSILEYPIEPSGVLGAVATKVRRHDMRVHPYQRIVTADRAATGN

T2: Qki-5 STAR domain (UniProt Q9QYS9 7-214)
T2 sequence: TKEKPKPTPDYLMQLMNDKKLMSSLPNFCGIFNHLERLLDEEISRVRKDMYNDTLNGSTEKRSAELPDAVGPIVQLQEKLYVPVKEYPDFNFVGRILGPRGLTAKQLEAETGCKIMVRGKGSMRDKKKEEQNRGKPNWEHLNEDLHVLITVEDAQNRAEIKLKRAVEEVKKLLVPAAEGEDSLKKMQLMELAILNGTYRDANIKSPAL


Legend:
Qki-5 full-length [1] = molecular target: T1, Qki-5 full-length; test: MST; MST: 20 nM Atto488-protein, PBS with Tween-20 (0.1% in 2x protein stock), 25 C; ITC: 50 mM Tris pH 7.5, 150 mM NaCl, 20 C; conditions: protein: recombinant; tags: N-terminal Trx-His6 (PreScission site); Atto488-NHS labeled for MST; chain copies: 2
Qki-5 full-length [2] = molecular target: T1, Qki-5 full-length; test: MST; Kd only in figure; MST: 20 nM Atto488-protein, PBS with Tween-20 (0.1% in 2x protein stock), 25 C; ITC: 50 mM Tris pH 7.5, 150 mM NaCl, 20 C; conditions: protein: recombinant; tags: N-terminal Trx-His6 (PreScission site); Atto488-NHS labeled for MST; chain copies: 2
Qki-5 STAR domain [3] = molecular target: T2, Qki-5 STAR domain; test: ITC; Kd only in figure; MST: 20 nM Atto488-protein, PBS with Tween-20 (0.1% in 2x protein stock), 25 C; ITC: 50 mM Tris pH 7.5, 150 mM NaCl, 20 C; conditions: protein: recombinant; tags: N-terminal Trx-His6 (PreScission site); chain copies: 2
Qki-5 full-length [4] = molecular target: T1, Qki-5 full-length; test: as above; conditions: protein: recombinant; tags: N-terminal Trx-His6 (PreScission site); Atto488-NHS labeled for MST; chain copies: 2
Qki-5 STAR domain [5] = molecular target: T2, Qki-5 STAR domain; test: ITC; text says KH domain of Qki; assayed construct is STAR; MST: 20 nM Atto488-protein, PBS with Tween-20 (0.1% in 2x protein stock), 25 C; ITC: 50 mM Tris pH 7.5, 150 mM NaCl, 20 C; conditions: protein: recombinant; tags: N-terminal Trx-His6 (PreScission site); chain copies: 2

Binder | Kd (Qki-5 full-length [1]) | binding result (Qki-5 full-length [2]) | other results
CAGAGCGCGCG (ssDNA) [QDE5-m] | 83 µM | – | –
CUUCUUAAUAUAACUGCCUUAAACUUUAAU (ssRNA) [QRE1] | – | binds | –
UUCACUAACAA (ssRNA) [QRE2] | – | – | binding result (Qki-5 STAR domain [3]): binds; binding result (Qki-5 full-length [4]): binds
CCAGTAACCAG (ssDNA) [QDE1] | 2.01 µM | – | Kd (Qki-5 STAR domain [5]): 11.9 µM
GGGGTAAGGGG (ssDNA) [QDE4] | 81 µM | – | –
CAGATAACGCG (ssDNA) [QDE5] | – | binds | –
CCTGTAACTGG (ssDNA) [QDE3] | – | binds | –
CTTACGCTAAG (ssDNA) [QDE2] | – | binds | –
